The target in one experiment is T1, rat MuSK (rat, UniProt Q62838 22-494, limits assumed).
T1 construct: Coated on Biacore chip (200RU) or ELISA plate
T1 sequence (looked up): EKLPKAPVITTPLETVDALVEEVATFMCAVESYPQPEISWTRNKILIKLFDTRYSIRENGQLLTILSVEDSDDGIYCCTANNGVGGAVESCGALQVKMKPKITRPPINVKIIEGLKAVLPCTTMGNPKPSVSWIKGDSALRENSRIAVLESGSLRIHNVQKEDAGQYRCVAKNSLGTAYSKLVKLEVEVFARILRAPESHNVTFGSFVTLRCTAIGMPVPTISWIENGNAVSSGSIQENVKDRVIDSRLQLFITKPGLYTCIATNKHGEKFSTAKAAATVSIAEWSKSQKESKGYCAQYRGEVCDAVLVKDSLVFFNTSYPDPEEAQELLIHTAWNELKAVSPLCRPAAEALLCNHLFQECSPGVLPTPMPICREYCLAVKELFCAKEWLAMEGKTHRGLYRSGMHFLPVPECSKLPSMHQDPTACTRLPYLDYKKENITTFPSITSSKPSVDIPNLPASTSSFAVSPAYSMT
Briefly: Biacore, MuSK on chip (200RU), 66.7 nM mAb, dissociation pH 7.4. The method, boiled down:
(§1)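 Sensor chip coated in parallel with cynomolgus monkey, rat and mouse MuSK. Antibody applied at a single concentration; association and dissociation kinetic parameters calculated from the sensorgrams.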
Background: SPR reads the build-up and loss of mass on a sensor chip optically.

Experiment [1] concerns the target T2, mouse MuSK (mouse, UniProt Q61006 22-494, limits assumed).
T2 construct: Coated on ELISA plates or on the Biacore chip; also called full length mouse MuSK; mouse MuSK (in house produced in HEK293 cells)
T2 sequence (looked up): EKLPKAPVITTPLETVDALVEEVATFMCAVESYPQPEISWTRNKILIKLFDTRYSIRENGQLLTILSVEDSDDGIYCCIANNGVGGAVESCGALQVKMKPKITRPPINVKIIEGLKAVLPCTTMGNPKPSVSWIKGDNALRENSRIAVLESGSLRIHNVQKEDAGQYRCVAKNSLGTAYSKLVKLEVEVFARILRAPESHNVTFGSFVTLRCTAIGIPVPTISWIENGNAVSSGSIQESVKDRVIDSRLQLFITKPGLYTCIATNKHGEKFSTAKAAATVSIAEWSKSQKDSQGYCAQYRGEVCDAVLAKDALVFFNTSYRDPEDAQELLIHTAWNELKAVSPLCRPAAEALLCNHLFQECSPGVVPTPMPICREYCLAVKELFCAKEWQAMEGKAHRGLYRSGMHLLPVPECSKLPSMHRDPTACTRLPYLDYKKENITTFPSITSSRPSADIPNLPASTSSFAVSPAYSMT
Described as above. The method, boiled down: as §1

Experiment [2] deals with T3, cynomolgus monkey MuSK (cynomolgus monkey, UniProt A0A2K5USF6 24-487). Described as above. The method, boiled down:
as §1

For experiment [3], the target named is T2, mouse MuSK. Briefly: Biacore, MuSK on chip (200RU), mAb dilution series. The text has this:
(§2) For affinity determination, a CMS chip was coated with either human or mouse MuSK (200RU) and a dilution series of the antibodies (mAbs and Fabs) was applied in order to be able to calculate the affinity.

The target of the next experiment is T4, human MuSK (human, UniProt O15146 24-495).
T4 construct: Recombinant protein coated on ELISA plates (R&D Systems cat. 10189-MK) or on the Biacore chip; also called human muscle-specific tyrosine protein kinase; full length human MuSK
T4 sequence: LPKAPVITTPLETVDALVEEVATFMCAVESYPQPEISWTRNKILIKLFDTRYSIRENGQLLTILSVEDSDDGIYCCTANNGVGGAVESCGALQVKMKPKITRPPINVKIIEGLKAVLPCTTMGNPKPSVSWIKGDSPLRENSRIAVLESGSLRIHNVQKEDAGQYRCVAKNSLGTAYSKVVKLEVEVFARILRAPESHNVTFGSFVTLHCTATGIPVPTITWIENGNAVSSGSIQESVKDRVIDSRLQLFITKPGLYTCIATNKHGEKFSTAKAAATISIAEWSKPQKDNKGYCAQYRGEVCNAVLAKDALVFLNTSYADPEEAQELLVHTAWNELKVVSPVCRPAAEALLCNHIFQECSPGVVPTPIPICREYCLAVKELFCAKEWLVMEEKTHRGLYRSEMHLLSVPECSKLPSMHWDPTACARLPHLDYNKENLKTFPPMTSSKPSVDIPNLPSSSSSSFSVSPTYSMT
Briefly: Biacore, MuSK on chip (200RU), mAb dilution series.
Description: as §2

Experiment [4] concerns the target T2, mouse MuSK. Briefly: Biacore, MuSK on chip, association pH 7.4, dissociation pH 5.5. The gist of the method:
(§3)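 MuSK was immobilized on the sensor chip at 200 RU, and antibody was injected at 66.7 nM. Association ran at pH 7.4 and dissociation at pH 5.5, and kinetic parameters were calculated from the sensorgrams.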

The target of experiment [5] is T3, cynomolgus monkey MuSK. Described as above. The gist of the method: as §3

Data on one molecule can be found in patent publication US20230151091A1 (NEW YORK UNIVERSITY, published 2023).

T3 sequence (A0A2K5USF6 entry or part of it): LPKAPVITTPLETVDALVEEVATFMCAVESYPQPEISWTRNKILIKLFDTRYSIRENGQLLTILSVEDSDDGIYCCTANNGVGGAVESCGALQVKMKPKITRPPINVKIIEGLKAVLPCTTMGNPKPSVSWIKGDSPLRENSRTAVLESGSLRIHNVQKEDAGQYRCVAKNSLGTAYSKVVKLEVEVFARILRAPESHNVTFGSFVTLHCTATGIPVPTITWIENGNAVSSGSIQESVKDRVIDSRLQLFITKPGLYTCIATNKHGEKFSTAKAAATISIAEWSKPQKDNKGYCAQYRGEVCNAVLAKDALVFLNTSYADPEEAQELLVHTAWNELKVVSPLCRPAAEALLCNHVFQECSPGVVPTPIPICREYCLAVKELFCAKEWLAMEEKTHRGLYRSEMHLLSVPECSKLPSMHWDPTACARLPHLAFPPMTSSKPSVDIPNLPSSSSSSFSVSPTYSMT

B1: 3B2 (antibody, V domains shown)
VH: ELQLVESGGGLVQPGGSLRLSCAASGFTFDDYGMSWVRQAPGKGLEWVSAIPWNGGSTYYKESVKGRFTISRDNAKKTLYLQMNSLKSEDTAVYYCAKRSGRIAFGALDAWGQGTLVTVSS
VL: QAVVTQEPSLSVSPGGTVTLTCGLSSGSVTSSNYPDWYQQTPGQAPRGLIYSTDSRHSGVPSRFSGSISGNKAALTITGAQSEDEADYYCGLYMYSGSKNYVFGGGTKLTVL
notes: human IgG1 with the LALA mutations (L234A, L235A); produced in HEK293 cells; also called 3B2 mAb; parental 3B2 Ab
Consider B1, for which the R0 with rat MuSK came out at 162 RU; with mouse MuSK [1] it was 195 RU; with cynomolgus monkey MuSK [2] it was 143 RU; with mouse MuSK [4], 194 RU; with cynomolgus monkey MuSK [5], 149 RU. For the same molecule, the koff with rat MuSK worked out at 0.00186 s⁻¹; with mouse MuSK [1], 0.00061 s⁻¹; with cynomolgus monkey MuSK [2] it was 0.00097 s⁻¹; with mouse MuSK [4], 0.00296 s⁻¹; with cynomolgus monkey MuSK [5], 0.00317 s⁻¹. Further, the kon in the experiment with rat MuSK is 1.14e+06 M⁻¹ s⁻¹; with mouse MuSK [1], 1.13e+06 M⁻¹ s⁻¹; in the experiment with cynomolgus monkey MuSK [2] it was 790000 M⁻¹ s⁻¹; with mouse MuSK [4], 1.05e+06 M⁻¹ s⁻¹; with cynomolgus monkey MuSK [5], 740000 M⁻¹ s⁻¹. The Kd in the experiment with mouse MuSK [3] was 0.134 nM; with human MuSK, 0.145 nM.

A word on the koff: it is a measure of how fast the partners let go of each other. By kon is commonly meant a measure of how fast the partners come together. By Kd is commonly meant the equilibrium constant for the complex coming apart.
